Consider two molecules from article PMC2708863 (The Journal of Biological Chemistry, 2009).

First the molecules themselves.
B1: ^3FnIII, third type III domain of human fibronectin (residues 810–900) (domain or fragment)
chain: not shown
B2: ^2–3FnI, human fibronectin residues 93–182 (domain or fragment, UniProt P02751 93-182, looked up)
chain: AEETCFDKYTGNTYRVGDTYERPKDSMIWDCTCIGAGRGRISCTIANRCHEGGQSYKIGDTWRRPHETGGYMLECVCLGNGKGEWTCKPI

Common to all, as to test: NMR titration
For assay [1], the target named is T1, ^4–5FnI, human fibronectin residues 183–275 (human, UniProt P02751 183-275).
T1 sequence (P02751 183-275): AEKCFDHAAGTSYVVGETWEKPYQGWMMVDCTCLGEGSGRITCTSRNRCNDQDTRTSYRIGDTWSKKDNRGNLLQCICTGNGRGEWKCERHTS
A further assay concerns the target ^4–5FnI (R222A) (human, UniProt P02751 183-275, R222A).
Assay [2] deals with T1, ^4–5FnI, human fibronectin residues …. The source holds these as a separate data set.
Assay [3] addresses B1.

Read-outs that look alike come from different tables or passages of the source. Where only a bound is given, the exact number is not on record here.

Chain of ^4–5FnI (R222A) (P02751 183-275 R222A): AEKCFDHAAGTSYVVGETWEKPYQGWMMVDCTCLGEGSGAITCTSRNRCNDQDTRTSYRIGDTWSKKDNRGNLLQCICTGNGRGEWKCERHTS

In the case of B1, the Kd in assay [1] is 800 ± 46 µM; in assay [2], 146 ± 9 µM. For the same molecule, the “fold reduction of affinity against the wild-type interaction” value with ^4–5FnI (R222A) was above 20 fold.
In assay [3], B2 showed a Kd of 820 ± 70 µM.

Usually Kd stands for the equilibrium constant for the complex coming apart. Read a high Kd as weaker binding.
